In patent US20150344570A1 (published 2015):
Each block holds one binder with its values, some of them ahead of it.

Legend:
[1] = target: T1, FcγRIIb, extracellular domain with C-terminal His tag (human, UniProt P31994 43-217); assay: SPR (Biacore), antibody captured on antigen peptide chip, FcγR as analyte; relative to GpH7-A5/GpH7-B3/GpL16-k0 = 100
T1 construct: extracellular domain; expressed in FreeStyle293 cells; also called FcgRIIb; 2b; not shown: His tag attached to the C terminus
T1 sequence (looked up): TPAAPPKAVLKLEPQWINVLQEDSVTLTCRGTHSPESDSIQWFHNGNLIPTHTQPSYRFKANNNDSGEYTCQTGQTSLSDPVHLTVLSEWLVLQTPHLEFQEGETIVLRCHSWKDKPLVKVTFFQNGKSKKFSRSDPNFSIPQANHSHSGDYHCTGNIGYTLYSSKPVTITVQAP

[2] = target: T2, FcγRIIa H (FcγRIIa type H, His at position 131), extracellular domain with C-terminal His tag (human, UniProt P12318 34-217); assay: as above
T2 construct: extracellular domain; expressed in FreeStyle293 cells; also called FcgRIIa H; 2aH; not shown: His tag attached to the C terminus
T2 sequence (looked up): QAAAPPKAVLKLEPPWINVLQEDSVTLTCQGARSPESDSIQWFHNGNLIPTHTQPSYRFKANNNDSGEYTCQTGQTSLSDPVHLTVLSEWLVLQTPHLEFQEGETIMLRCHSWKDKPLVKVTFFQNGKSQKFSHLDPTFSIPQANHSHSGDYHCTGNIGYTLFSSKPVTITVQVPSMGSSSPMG

[3] = target: T2, FcγRIIa H (FcγRIIa type H, His at …); assay: SPR (Biacore); He/Con_2aH divided by He/Con_2b (FcγRIIa H against FcγRIIb)

B1: GpH7-A5/GpH7-B3 variant P238_07I/GpL16-k0 (antibody, human IgG1, kappa)
heavy 1: not shown
heavy 2: not shown
light: DIVMTQSPLSLPVTPGEPASISCQASESLVHSNRNTYLHWYLQKPGQSPQLLIYKVSNRFSGVPDRFSGSGSGTDFTLKISRVEAEDVGVYYCSQNTHVPPTFGQGTKVEIERTVAAPSVFIFPPSDEQLKSGTASVVCLLNNFYPREAKVQWKVDNALQSGNSQESVTEQDSKDSTYSLSSTLTLSKADYEKHKVYACEVTHQGLSSPVTKSFNRGEC
notes: Heterodimerized antibody (He Ab): mutation in the GpH7-B3 chain only; also called He Ab
He/Con_2b (relative binding activity) [1]: 80 % of HeCon Ab (= 100)
He/Con_2aH (relative binding activity) [2]: 57.6 % of HeCon Ab (= 100)
He_2aH/2b (IIaH/IIb) [3]: 0.72 ratio

B2: GpH7-A5/GpH7-B3 variant P238_18N/GpL16-k0 (antibody, human IgG1, kappa)
heavy 1: not shown
heavy 2: not shown
light: DIVMTQSPLSLPVTPGEPASISCQASESLVHSNRNTYLHWYLQKPGQSPQLLIYKVSNRFSGVPDRFSGSGSGTDFTLKISRVEAEDVGVYYCSQNTHVPPTFGQGTKVEIERTVAAPSVFIFPPSDEQLKSGTASVVCLLNNFYPREAKVQWKVDNALQSGNSQESVTEQDSKDSTYSLSSTLTLSKADYEKHKVYACEVTHQGLSSPVTKSFNRGEC
notes: as for B1
He/Con_2b (relative binding activity) [1]: 73.2 % of HeCon Ab (= 100)
He/Con_2aH (relative binding activity) [2]: 53.5 % of HeCon Ab (= 100)
He_2aH/2b (IIaH/IIb) [3]: 0.73 ratio

B4: GpH7-A5/GpH7-B3 variant P238_08L/GpL16-k0 (antibody, human IgG1, kappa)
heavy 1: not shown
heavy 2: not shown
light: DIVMTQSPLSLPVTPGEPASISCQASESLVHSNRNTYLHWYLQKPGQSPQLLIYKVSNRFSGVPDRFSGSGSGTDFTLKISRVEAEDVGVYYCSQNTHVPPTFGQGTKVEIERTVAAPSVFIFPPSDEQLKSGTASVVCLLNNFYPREAKVQWKVDNALQSGNSQESVTEQDSKDSTYSLSSTLTLSKADYEKHKVYACEVTHQGLSSPVTKSFNRGEC
notes: as for B1
He/Con_2b (relative binding activity) [1]: 204 % of HeCon Ab (= 100)
He/Con_2aH (relative binding activity) [2]: 84.6 % of HeCon Ab (= 100)
He_2aH/2b (IIaH/IIb) [3]: 0.41 ratio

B5: GpH7-A5/GpH7-B3 variant P238_13S/GpL16-k0 (antibody, human IgG1, kappa)
heavy 1: not shown
heavy 2: not shown
light: DIVMTQSPLSLPVTPGEPASISCQASESLVHSNRNTYLHWYLQKPGQSPQLLIYKVSNRFSGVPDRFSGSGSGTDFTLKISRVEAEDVGVYYCSQNTHVPPTFGQGTKVEIERTVAAPSVFIFPPSDEQLKSGTASVVCLLNNFYPREAKVQWKVDNALQSGNSQESVTEQDSKDSTYSLSSTLTLSKADYEKHKVYACEVTHQGLSSPVTKSFNRGEC
notes: as for B1
He/Con_2b (relative binding activity) [1]: 70.4 % of HeCon Ab (= 100)
He/Con_2aH (relative binding activity) [2]: 50.9 % of HeCon Ab (= 100)
He_2aH/2b (IIaH/IIb) [3]: 0.72 ratio

B6: GpH7-A5/GpH7-B3 variant P238_10E/GpL16-k0 (antibody, human IgG1, kappa)
heavy 1: not shown
heavy 2: not shown
light: DIVMTQSPLSLPVTPGEPASISCQASESLVHSNRNTYLHWYLQKPGQSPQLLIYKVSNRFSGVPDRFSGSGSGTDFTLKISRVEAEDVGVYYCSQNTHVPPTFGQGTKVEIERTVAAPSVFIFPPSDEQLKSGTASVVCLLNNFYPREAKVQWKVDNALQSGNSQESVTEQDSKDSTYSLSSTLTLSKADYEKHKVYACEVTHQGLSSPVTKSFNRGEC
notes: as for B1
He/Con_2b (relative binding activity) [1]: 232 % of HeCon Ab (= 100)
He/Con_2aH (relative binding activity) [2]: 77.1 % of HeCon Ab (= 100)
He_2aH/2b (IIaH/IIb) [3]: 0.33 ratio

B7: GpH7-A5/GpH7-B3 variant P238_16H/GpL16-k0 (antibody, human IgG1, kappa)
heavy 1: not shown
heavy 2: not shown
light: DIVMTQSPLSLPVTPGEPASISCQASESLVHSNRNTYLHWYLQKPGQSPQLLIYKVSNRFSGVPDRFSGSGSGTDFTLKISRVEAEDVGVYYCSQNTHVPPTFGQGTKVEIERTVAAPSVFIFPPSDEQLKSGTASVVCLLNNFYPREAKVQWKVDNALQSGNSQESVTEQDSKDSTYSLSSTLTLSKADYEKHKVYACEVTHQGLSSPVTKSFNRGEC
notes: as for B1
He/Con_2b (relative binding activity) [1]: 115 % of HeCon Ab (= 100)
He/Con_2aH (relative binding activity) [2]: 45.9 % of HeCon Ab (= 100)
He_2aH/2b (IIaH/IIb) [3]: 0.4 ratio

B9: GpH7-A5/GpH7-B3 variant P238_09D/GpL16-k0 (antibody, human IgG1, kappa)
heavy 1: not shown
heavy 2: not shown
light: DIVMTQSPLSLPVTPGEPASISCQASESLVHSNRNTYLHWYLQKPGQSPQLLIYKVSNRFSGVPDRFSGSGSGTDFTLKISRVEAEDVGVYYCSQNTHVPPTFGQGTKVEIERTVAAPSVFIFPPSDEQLKSGTASVVCLLNNFYPREAKVQWKVDNALQSGNSQESVTEQDSKDSTYSLSSTLTLSKADYEKHKVYACEVTHQGLSSPVTKSFNRGEC
notes: as for B1
He/Con_2b (relative binding activity) [1]: 221 % of HeCon Ab (= 100)
He/Con_2aH (relative binding activity) [2]: 87.5 % of HeCon Ab (= 100)
He_2aH/2b (IIaH/IIb) [3]: 0.4 ratio

B10: GpH7-A5/GpH7-B3 variant P238_14T/GpL16-k0 (antibody, human IgG1, kappa)
heavy 1: not shown
heavy 2: not shown
light: DIVMTQSPLSLPVTPGEPASISCQASESLVHSNRNTYLHWYLQKPGQSPQLLIYKVSNRFSGVPDRFSGSGSGTDFTLKISRVEAEDVGVYYCSQNTHVPPTFGQGTKVEIERTVAAPSVFIFPPSDEQLKSGTASVVCLLNNFYPREAKVQWKVDNALQSGNSQESVTEQDSKDSTYSLSSTLTLSKADYEKHKVYACEVTHQGLSSPVTKSFNRGEC
notes: as for B1
He/Con_2b (relative binding activity) [1]: 50.7 % of HeCon Ab (= 100)
He/Con_2aH (relative binding activity) [2]: 37.7 % of HeCon Ab (= 100)
He_2aH/2b (IIaH/IIb) [3]: 0.74 ratio

B13: GpH7-A5/GpH7-B3 variant P238_15Y/GpL16-k0 (antibody, human IgG1, kappa)
heavy 1: not shown
heavy 2: not shown
light: DIVMTQSPLSLPVTPGEPASISCQASESLVHSNRNTYLHWYLQKPGQSPQLLIYKVSNRFSGVPDRFSGSGSGTDFTLKISRVEAEDVGVYYCSQNTHVPPTFGQGTKVEIERTVAAPSVFIFPPSDEQLKSGTASVVCLLNNFYPREAKVQWKVDNALQSGNSQESVTEQDSKDSTYSLSSTLTLSKADYEKHKVYACEVTHQGLSSPVTKSFNRGEC
notes: as for B1
He/Con_2b (relative binding activity) [1]: 218 % of HeCon Ab (= 100)
He/Con_2aH (relative binding activity) [2]: 59.8 % of HeCon Ab (= 100)
He_2aH/2b (IIaH/IIb) [3]: 0.27 ratio

Other lines, results leading:

He/Con_2b (relative binding activity) [1]: 144 % of HeCon Ab (= 100)
He/Con_2aH (relative binding activity) [2]: 97 % of HeCon Ab (= 100)
He_2aH/2b (IIaH/IIb) [3]: 0.67 ratio
B3: GpH7-A5/GpH7-B3 variant S239_01G/GpL16-k0 (antibody, human IgG1, kappa)
heavy 1: not shown
heavy 2: not shown
light: DIVMTQSPLSLPVTPGEPASISCQASESLVHSNRNTYLHWYLQKPGQSPQLLIYKVSNRFSGVPDRFSGSGSGTDFTLKISRVEAEDVGVYYCSQNTHVPPTFGQGTKVEIERTVAAPSVFIFPPSDEQLKSGTASVVCLLNNFYPREAKVQWKVDNALQSGNSQESVTEQDSKDSTYSLSSTLTLSKADYEKHKVYACEVTHQGLSSPVTKSFNRGEC
notes: as for B1

He/Con_2b (relative binding activity) [1]: 110 % of HeCon Ab (= 100)
He/Con_2aH (relative binding activity) [2]: 56.4 % of HeCon Ab (= 100)
He_2aH/2b (IIaH/IIb) [3]: 0.51 ratio
B8: GpH7-A5/GpH7-B3 variant P238_19Q/GpL16-k0 (antibody, human IgG1, kappa)
heavy 1: not shown
heavy 2: not shown
light: DIVMTQSPLSLPVTPGEPASISCQASESLVHSNRNTYLHWYLQKPGQSPQLLIYKVSNRFSGVPDRFSGSGSGTDFTLKISRVEAEDVGVYYCSQNTHVPPTFGQGTKVEIERTVAAPSVFIFPPSDEQLKSGTASVVCLLNNFYPREAKVQWKVDNALQSGNSQESVTEQDSKDSTYSLSSTLTLSKADYEKHKVYACEVTHQGLSSPVTKSFNRGEC
notes: as for B1

He/Con_2b (relative binding activity) [1]: 102 % of HeCon Ab (= 100)
He/Con_2aH (relative binding activity) [2]: 33.3 % of HeCon Ab (= 100)
He_2aH/2b (IIaH/IIb) [3]: 0.33 ratio
B11: GpH7-A5/GpH7-B3 variant S239_05P/GpL16-k0 (antibody, human IgG1, kappa)
heavy 1: not shown
heavy 2: not shown
light: DIVMTQSPLSLPVTPGEPASISCQASESLVHSNRNTYLHWYLQKPGQSPQLLIYKVSNRFSGVPDRFSGSGSGTDFTLKISRVEAEDVGVYYCSQNTHVPPTFGQGTKVEIERTVAAPSVFIFPPSDEQLKSGTASVVCLLNNFYPREAKVQWKVDNALQSGNSQESVTEQDSKDSTYSLSSTLTLSKADYEKHKVYACEVTHQGLSSPVTKSFNRGEC
notes: as for B1

He/Con_2b (relative binding activity) [1]: 123 % of HeCon Ab (= 100)
He/Con_2aH (relative binding activity) [2]: 59.5 % of HeCon Ab (= 100)
He_2aH/2b (IIaH/IIb) [3]: 0.49 ratio
B12: GpH7-A5/GpH7-B3 variant P238_20W/GpL16-k0 (antibody, human IgG1, kappa)
heavy 1: not shown
heavy 2: not shown
light: DIVMTQSPLSLPVTPGEPASISCQASESLVHSNRNTYLHWYLQKPGQSPQLLIYKVSNRFSGVPDRFSGSGSGTDFTLKISRVEAEDVGVYYCSQNTHVPPTFGQGTKVEIERTVAAPSVFIFPPSDEQLKSGTASVVCLLNNFYPREAKVQWKVDNALQSGNSQESVTEQDSKDSTYSLSSTLTLSKADYEKHKVYACEVTHQGLSSPVTKSFNRGEC
notes: as for B1
